Test results taken from US20180155451A1 (published 2018).

T1: FcγRIIb, extracellular domain with C-terminal His tag (human, UniProt P31994 43-217)
T1 construct: extracellular domain; Expressed in FreeStyle293 cells; analyte in the Biacore assay; also called FcgRIIb; 2b; not shown: His tag at the C terminus
T1 sequence (looked up): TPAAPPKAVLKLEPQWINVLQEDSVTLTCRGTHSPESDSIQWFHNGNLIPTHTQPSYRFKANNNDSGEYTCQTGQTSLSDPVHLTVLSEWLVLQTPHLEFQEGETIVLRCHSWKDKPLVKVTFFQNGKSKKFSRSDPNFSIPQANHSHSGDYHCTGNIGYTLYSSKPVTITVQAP

T2: FcγRIIa H (FcγRIIa type H, His at position 131), extracellular domain with C-terminal His tag (human, UniProt P12318 34-217)
T2 construct: extracellular domain; Expressed in FreeStyle293 cells; analyte in the Biacore assay; also called FcgRIIa H; 2aH; not shown: His tag at the C terminus
T2 sequence (looked up): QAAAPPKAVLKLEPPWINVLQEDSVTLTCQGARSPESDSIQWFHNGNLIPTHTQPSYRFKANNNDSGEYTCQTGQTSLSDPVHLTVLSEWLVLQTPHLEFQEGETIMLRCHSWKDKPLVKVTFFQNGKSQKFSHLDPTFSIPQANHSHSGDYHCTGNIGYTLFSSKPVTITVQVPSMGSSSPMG

B1: GpH7-A5/GpH7-B3 variant P329_01G/GpL16-k0 (antibody, human IgG1, kappa)
heavy 1: not shown
heavy 2: not shown
light: DIVMTQSPLSLPVTPGEPASISCQASESLVHSNRNTYLHWYLQKPGQSPQLLIYKVSNRFSGVPDRFSGSGSGTDFTLKISRVEAEDVGVYYCSQNTHVPPTFGQGTKVEIERTVAAPSVFIFPPSDEQLKSGTASVVCLLNNFYPREAKVQWKVDNALQSGNSQESVTEQDSKDSTYSLSSTLTLSKADYEKHKVYACEVTHQGLSSPVTKSFNRGEC
notes: He Ab; IgG1; mutation in one H chain only; also called He Ab
B2: GpH7-A5/GpH7-B3 variant P329_07I/GpL16-k0 (antibody, human IgG1, kappa)
heavy 1: not shown
heavy 2: not shown
light: B1 light
notes: as for B1
B3: GpH7-A5/GpH7-B3 variant P329_03V/GpL16-k0 (antibody, human IgG1, kappa)
heavy 1: not shown
heavy 2: not shown
light: B1 light
notes: as for B1
B4: GpH7-A5/GpH7-B3 variant A330_03V/GpL16-k0 (antibody, human IgG1, kappa)
heavy 1: not shown
heavy 2: not shown
light: B1 light
notes: as for B1
B5: GpH7-A5/GpH7-B3 variant A330_13S/GpL16-k0 (antibody, human IgG1, kappa)
heavy 1: not shown
heavy 2: not shown
light: B1 light
notes: as for B1
B6: GpH7-A5/GpH7-B3 variant P329_04F/GpL16-k0 (antibody, human IgG1, kappa)
heavy 1: not shown
heavy 2: not shown
light: B1 light
notes: as for B1
B7: GpH7-A5/GpH7-B3 variant P329_08L/GpL16-k0 (antibody, human IgG1, kappa)
heavy 1: not shown
heavy 2: not shown
light: B1 light
notes: as for B1
B8: GpH7-A5/GpH7-B3 variant I332_03V/GpL16-k0 (antibody, human IgG1, kappa)
heavy 1: not shown
heavy 2: not shown
light: B1 light
notes: as for B1
B9: GpH7-A5/GpH7-B3 variant P329_15Y/GpL16-k0 (antibody, human IgG1, kappa)
heavy 1: not shown
heavy 2: not shown
light: B1 light
notes: as for B1
B10: GpH7-A5/GpH7-B3 variant P329_12R/GpL16-k0 (antibody, human IgG1, kappa)
heavy 1: not shown
heavy 2: not shown
light: B1 light
notes: as for B1
B11: GpH7-A5/GpH7-B3 variant P329_06M/GpL16-k0 (antibody, human IgG1, kappa)
heavy 1: not shown
heavy 2: not shown
light: B1 light
notes: as for B1
B12: GpH7-A5/GpH7-B3 variant E333_13S/GpL16-k0 (antibody, human IgG1, kappa)
heavy 1: not shown
heavy 2: not shown
light: B1 light
notes: as for B1
B13: GpH7-A5/GpH7-B3 variant I336_20W/GpL16-k0 (antibody, human IgG1, kappa)
heavy 1: not shown
heavy 2: not shown
light: B1 light
notes: as for B1
B14: GpH7-A5/GpH7-B3 variant E333_11K/GpL16-k0 (antibody, human IgG1, kappa)
heavy 1: not shown
heavy 2: not shown
light: B1 light
notes: as for B1
B15: GpH7-A5/GpH7-B3 variant N325_12R/GpL16-k0 (antibody, human IgG1, kappa)
heavy 1: not shown
heavy 2: not shown
light: B1 light
notes: as for B1
B16: GpH7-A5/GpH7-B3 variant P329_14T/GpL16-k0 (antibody, human IgG1, kappa)
heavy 1: not shown
heavy 2: not shown
light: B1 light
notes: as for B1
B17: GpH7-A5/GpH7-B3 variant A327_06M/GpL16-k0 (antibody, human IgG1, kappa)
heavy 1: not shown
heavy 2: not shown
light: B1 light
notes: as for B1
B18: GpH7-A5/GpH7-B3 variant E333_18N/GpL16-k0 (antibody, human IgG1, kappa)
heavy 1: not shown
heavy 2: not shown
light: B1 light
notes: as for B1
B19: GpH7-A5/GpH7-B3 variant A330_14T/GpL16-k0 (antibody, human IgG1, kappa)
heavy 1: not shown
heavy 2: not shown
light: B1 light
notes: as for B1
B20: GpH7-A5/GpH7-B3 variant P329_11K/GpL16-k0 (antibody, human IgG1, kappa)
heavy 1: not shown
heavy 2: not shown
light: B1 light
notes: as for B1
B21: GpH7-A5/GpH7-B3 variant N325_11K/GpL16-k0 (antibody, human IgG1, kappa)
heavy 1: not shown
heavy 2: not shown
light: B1 light
notes: as for B1
B22: GpH7-A5/GpH7-B3 variant A327_04F/GpL16-k0 (antibody, human IgG1, kappa)
heavy 1: not shown
heavy 2: not shown
light: B1 light
notes: as for B1
B23: GpH7-A5/GpH7-B3 variant E333_01G/GpL16-k0 (antibody, human IgG1, kappa)
heavy 1: not shown
heavy 2: not shown
light: B1 light
notes: as for B1
B24: GpH7-A5/GpH7-B3 variant A330_08L/GpL16-k0 (antibody, human IgG1, kappa)
heavy 1: not shown
heavy 2: not shown
light: B1 light
notes: as for B1
B25: GpH7-A5/GpH7-B3 variant A330_18N/GpL16-k0 (antibody, human IgG1, kappa)
heavy 1: not shown
heavy 2: not shown
light: B1 light
notes: as for B1
B26: GpH7-A5/GpH7-B3 variant P329_13S/GpL16-k0 (antibody, human IgG1, kappa)
heavy 1: not shown
heavy 2: not shown
light: B1 light
notes: as for B1
B27: GpH7-A5/GpH7-B3 variant A330_12R/GpL16-k0 (antibody, human IgG1, kappa)
heavy 1: not shown
heavy 2: not shown
light: B1 light
notes: as for B1
B28: GpH7-A5/GpH7-B3 variant I336_19Q/GpL16-k0 (antibody, human IgG1, kappa)
heavy 1: not shown
heavy 2: not shown
light: B1 light
notes: as for B1
B29: GpH7-A5/GpH7-B3 variant A330_07I/GpL16-k0 (antibody, human IgG1, kappa)
heavy 1: not shown
heavy 2: not shown
light: B1 light
notes: as for B1
B30: GpH7-A5/GpH7-B3 variant I332_18N/GpL16-k0 (antibody, human IgG1, kappa)
heavy 1: not shown
heavy 2: not shown
light: B1 light
notes: as for B1
B31: GpH7-A5/GpH7-B3 variant A327_19Q/GpL16-k0 (antibody, human IgG1, kappa)
heavy 1: not shown
heavy 2: not shown
light: B1 light
notes: as for B1
B32: GpH7-A5/GpH7-B3 variant P329_02A/GpL16-k0 (antibody, human IgG1, kappa)
heavy 1: not shown
heavy 2: not shown
light: B1 light
notes: as for B1
B33: GpH7-A5/GpH7-B3 variant I332_12R/GpL16-k0 (antibody, human IgG1, kappa)
heavy 1: not shown
heavy 2: not shown
light: B1 light
notes: as for B1

molecular target: T1, FcγRIIb, extracellular domain with …; experiment: SPR Biacore, captured antibody, FcgR analyte; GpH7-A5/GpH7-B3/GpL16-k0 = 100

| Binder | He/Con_2b |
| --- | --- |
| B1 | 41.7 % of HeCon Ab |
| B2 | 34.6 % of HeCon Ab |
| B3 | 38.5 % of HeCon Ab |
| B4 | 52.4 % of HeCon Ab |
| B5 | 41.3 % of HeCon Ab |
| B6 | 32.2 % of HeCon Ab |
| B7 | 29.1 % of HeCon Ab |
| B8 | 80.7 % of HeCon Ab |
| B9 | 45.7 % of HeCon Ab |
| B10 | 17.6 % of HeCon Ab |
| B11 | 29.1 % of HeCon Ab |
| B12 | 81.8 % of HeCon Ab |
| B13 | 20.3 % of HeCon Ab |
| B14 | 80.6 % of HeCon Ab |
| B15 | 19.1 % of HeCon Ab |
| B16 | 37.9 % of HeCon Ab |
| B17 | 59.5 % of HeCon Ab |

| Binder | He/Con_2b |
| --- | --- |
| B18 | 76.1 % of HeCon Ab |
| B19 | 77.9 % of HeCon Ab |
| B20 | 16.9 % of HeCon Ab |
| B21 | 10.4 % of HeCon Ab |
| B22 | 63.7 % of HeCon Ab |
| B23 | 81.4 % of HeCon Ab |
| B24 | 70.5 % of HeCon Ab |
| B25 | 63.7 % of HeCon Ab |
| B26 | 41 % of HeCon Ab |
| B27 | 84.8 % of HeCon Ab |
| B28 | 58.2 % of HeCon Ab |
| B29 | 67.1 % of HeCon Ab |
| B30 | 89.9 % of HeCon Ab |
| B31 | 54.2 % of HeCon Ab |
| B32 | 40.5 % of HeCon Ab |
| B33 | 48.9 % of HeCon Ab |

molecular target: T2, FcγRIIa H (FcγRIIa type H, His at …); experiment: as above

| Binder | He/Con_2aH |
| --- | --- |
| B1 | 54.9 % of HeCon Ab |
| B2 | 53.8 % of HeCon Ab |
| B3 | 60.4 % of HeCon Ab |
| B4 | 79.7 % of HeCon Ab |
| B5 | 65.4 % of HeCon Ab |
| B6 | 44.5 % of HeCon Ab |
| B7 | 45.4 % of HeCon Ab |
| B8 | 105 % of HeCon Ab |
| B9 | 68.7 % of HeCon Ab |
| B10 | 46.4 % of HeCon Ab |
| B11 | 43.7 % of HeCon Ab |
| B12 | 101 % of HeCon Ab |
| B13 | 30.9 % of HeCon Ab |
| B14 | 98.1 % of HeCon Ab |
| B15 | 29.9 % of HeCon Ab |
| B16 | 62.4 % of HeCon Ab |
| B17 | 75.5 % of HeCon Ab |

| Binder | He/Con_2aH |
| --- | --- |
| B18 | 96.2 % of HeCon Ab |
| B19 | 94.5 % of HeCon Ab |
| B20 | 46.2 % of HeCon Ab |
| B21 | 16.1 % of HeCon Ab |
| B22 | 84.4 % of HeCon Ab |
| B23 | 97.7 % of HeCon Ab |
| B24 | 87.6 % of HeCon Ab |
| B25 | 81.6 % of HeCon Ab |
| B26 | 67.3 % of HeCon Ab |
| B27 | 108 % of HeCon Ab |
| B28 | 73.7 % of HeCon Ab |
| B29 | 87.3 % of HeCon Ab |
| B30 | 110 % of HeCon Ab |
| B31 | 67.3 % of HeCon Ab |
| B32 | 65.7 % of HeCon Ab |
| B33 | 87.8 % of HeCon Ab |

molecular target: T2, FcγRIIa H (FcγRIIa type H, His at …); experiment: SPR Biacore; He/Con_2aH divided by He/Con_2b (reference: FcgRIIb)

| Binder | He_2aH/2b (IIaH/IIb) |
| --- | --- |
| B1 | 1.32 |
| B2 | 1.56 |
| B3 | 1.57 |
| B4 | 1.52 |
| B5 | 1.58 |
| B6 | 1.38 |
| B7 | 1.56 |
| B8 | 1.3 |
| B9 | 1.5 |
| B10 | 2.63 |
| B11 | 1.5 |
| B12 | 1.23 |
| B13 | 1.52 |
| B14 | 1.22 |
| B15 | 1.56 |
| B16 | 1.65 |
| B17 | 1.27 |

| Binder | He_2aH/2b (IIaH/IIb) |
| --- | --- |
| B18 | 1.26 |
| B19 | 1.21 |
| B20 | 2.74 |
| B21 | 1.55 |
| B22 | 1.32 |
| B23 | 1.2 |
| B24 | 1.24 |
| B25 | 1.28 |
| B26 | 1.64 |
| B27 | 1.27 |
| B28 | 1.27 |
| B29 | 1.3 |
| B30 | 1.22 |
| B31 | 1.24 |
| B32 | 1.62 |
| B33 | 1.8 |
